Assays:
Test in all cases: SPOT array
[1] = target: Bem1-1, P29366; conditions: median of control spots 4282
[2] = target: T1, Hse1, P38753; conditions: median of control spots 1727
T1 sequence (P38753 208-285, looked up): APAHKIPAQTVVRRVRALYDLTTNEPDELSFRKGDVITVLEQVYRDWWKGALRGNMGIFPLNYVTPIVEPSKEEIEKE

[3] = target: T2, Fus1, P11710; conditions: median of control spots 1200
T2 sequence (P11710 432-512, looked up): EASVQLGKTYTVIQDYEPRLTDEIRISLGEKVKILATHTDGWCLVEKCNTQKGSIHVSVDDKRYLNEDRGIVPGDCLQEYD

[4] = target: T3, Bud14, P27637; conditions: median of control spots 956
T3 sequence (P27637 247-328, looked up): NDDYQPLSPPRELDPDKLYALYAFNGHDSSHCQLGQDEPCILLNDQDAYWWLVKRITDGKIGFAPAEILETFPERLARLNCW

[5] = target: T4, Pin3, Q06449; conditions: median of control spots 2171
T4 sequence (Q06449 53-122, looked up): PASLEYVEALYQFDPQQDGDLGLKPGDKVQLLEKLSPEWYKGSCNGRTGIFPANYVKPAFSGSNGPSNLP

[6] = target: Bem1-2, P29366; conditions: median of control spots 4347
Sequence of Bem1-2, P29366 (P29366 139-227): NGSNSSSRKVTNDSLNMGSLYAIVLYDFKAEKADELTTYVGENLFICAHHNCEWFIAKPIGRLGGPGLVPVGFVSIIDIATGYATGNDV

[7] = target: T5, Cdc25, P04821; conditions: median of control spots 969
T5 sequence (P04821 50-136, looked up): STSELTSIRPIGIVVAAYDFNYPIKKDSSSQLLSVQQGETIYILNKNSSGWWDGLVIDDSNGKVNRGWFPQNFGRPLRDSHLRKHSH

[8] = target: T6, Myo5, Q04439; conditions: median of control spots 471
T6 sequence (Q04439 1072-1160, looked up): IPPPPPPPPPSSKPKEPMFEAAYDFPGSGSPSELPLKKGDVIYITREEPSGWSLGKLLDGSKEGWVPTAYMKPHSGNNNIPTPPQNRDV

[9] = target: Rvs167, P39743; conditions: median of control spots 2707
Sequence of Rvs167, P39743 (P39743 419-482): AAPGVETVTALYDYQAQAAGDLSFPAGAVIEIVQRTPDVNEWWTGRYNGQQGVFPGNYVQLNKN

[10] = target: Sho1, P40073; conditions: median of control spots 1148
Sequence of Sho1, P40073 (P40073 287-367): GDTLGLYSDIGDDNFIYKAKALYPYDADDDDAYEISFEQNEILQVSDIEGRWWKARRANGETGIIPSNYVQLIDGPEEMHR

[11] = target: T7, Sla1-2, P32790; conditions: median of control spots 712
T7 sequence (P32790 60-140, looked up): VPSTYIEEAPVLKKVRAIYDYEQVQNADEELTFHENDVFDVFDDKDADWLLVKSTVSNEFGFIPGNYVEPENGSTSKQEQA

[12] = target: T8, Pex13, P80667; conditions: median of control spots 1341
T8 sequence (P80667 295-386, looked up): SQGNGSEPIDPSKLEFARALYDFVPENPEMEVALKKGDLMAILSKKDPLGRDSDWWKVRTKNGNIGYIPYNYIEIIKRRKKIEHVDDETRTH

[13] = target: T9, Abp1, P15891; conditions: median of control spots 935
T9 sequence (P15891 535-592, looked up): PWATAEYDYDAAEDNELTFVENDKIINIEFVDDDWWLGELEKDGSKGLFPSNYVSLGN

[14] = target: Myo3, P36006; conditions: median of control spots 468
[15] = target: T10, Bzz1-2, P38822; conditions: median of control spots 4538
T10 sequence (P38822 568-633, looked up): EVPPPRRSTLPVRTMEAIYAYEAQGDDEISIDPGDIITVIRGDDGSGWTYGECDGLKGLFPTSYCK

[16] = target: T11, Bzz1-1, P38822; conditions: median of control spots 4446
T11 sequence (P38822 478-572, looked up): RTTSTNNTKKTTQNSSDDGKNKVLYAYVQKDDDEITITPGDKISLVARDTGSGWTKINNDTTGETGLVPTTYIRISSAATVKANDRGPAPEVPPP

[17] = target: T12, Cyk3, Q07533; conditions: median of control spots 1451
T12 sequence (Q07533 1-83, looked up): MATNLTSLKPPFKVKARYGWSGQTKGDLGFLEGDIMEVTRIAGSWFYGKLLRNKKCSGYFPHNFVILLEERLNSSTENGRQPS

[18] = target: T13, Lsb4, P32793; conditions: median of control spots 397
T13 sequence (P32793 402-468, looked up): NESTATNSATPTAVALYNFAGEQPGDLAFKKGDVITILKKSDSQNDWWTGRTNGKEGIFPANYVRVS

[19] = target: T14, Nbp2, Q12163; conditions: median of control spots 357
T14 sequence (Q12163 103-180, looked up): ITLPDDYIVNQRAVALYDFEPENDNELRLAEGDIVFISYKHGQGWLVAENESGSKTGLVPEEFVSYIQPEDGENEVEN

[20] = target: T15, Boi1, P38041; conditions: median of control spots 1162
T15 sequence (P38041 1-86, looked up): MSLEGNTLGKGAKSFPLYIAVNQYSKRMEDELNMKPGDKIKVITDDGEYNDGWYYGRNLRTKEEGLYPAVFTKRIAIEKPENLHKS

[21] = target: T16, Bbc1, P47068; conditions: median of control spots 796
T16 sequence (P47068 1-78, looked up): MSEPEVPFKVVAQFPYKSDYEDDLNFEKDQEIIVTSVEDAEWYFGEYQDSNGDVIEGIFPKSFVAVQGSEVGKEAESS

[22] = target: T17, Lsb1, P53281; conditions: median of control spots 388
T17 sequence (P53281 45-122, looked up): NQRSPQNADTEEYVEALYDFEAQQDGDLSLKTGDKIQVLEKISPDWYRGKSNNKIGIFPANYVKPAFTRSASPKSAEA

[23] = target: T18, Hof1, Q05080; conditions: median of control spots 4086
T18 sequence (Q05080 590-669, looked up): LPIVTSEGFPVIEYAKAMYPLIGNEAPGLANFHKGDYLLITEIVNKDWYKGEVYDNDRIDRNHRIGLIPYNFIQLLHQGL

[24] = target: T19, Sla1-3, P32790; conditions: median of control spots 5475
T19 sequence (P32790 344-424, looked up): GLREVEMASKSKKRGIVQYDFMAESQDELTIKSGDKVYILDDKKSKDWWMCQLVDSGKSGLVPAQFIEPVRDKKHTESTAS

[25] = target: T20, Boi2, P39969; conditions: median of control spots 1161
T20 sequence (P39969 32-116, looked up): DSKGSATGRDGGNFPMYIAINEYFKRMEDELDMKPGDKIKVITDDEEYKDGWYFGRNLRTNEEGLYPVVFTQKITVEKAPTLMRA

[26] = target: GST; conditions: median of control spots 978
[27] = target: T21, Lsb3, P43603; conditions: median of control spots 406
T21 sequence (P43603 385-451, looked up): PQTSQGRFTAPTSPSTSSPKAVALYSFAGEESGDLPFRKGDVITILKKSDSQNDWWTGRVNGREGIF

Sequence of Bem1-1, P29366 (P29366 55-141): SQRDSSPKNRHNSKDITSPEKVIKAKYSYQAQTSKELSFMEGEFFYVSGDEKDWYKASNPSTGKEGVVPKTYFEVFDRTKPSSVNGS

Row | Binder | SPOT intensity [1] | SPOT intensity [2] | SPOT intensity [3] | SPOT intensity [4] | SPOT intensity [5] | SPOT intensity [6] | SPOT intensity [7] | SPOT intensity [8] | SPOT intensity [9] | SPOT intensity [10] | SPOT intensity [11] | SPOT intensity [12] | SPOT intensity [13] | SPOT intensity [14] | SPOT intensity [15] | SPOT intensity [16] | SPOT intensity [17] | SPOT intensity [18] | SPOT intensity [19] | SPOT intensity [20] | other results
1 | DDEDVPPQLPTRTKS | 0 | 2 | 0 | 1 | 2 | 3 | 0 | 0 | 1260 | 0 | 0 | 97 | 0 | 0 | 0 | 0 | 0 | 897 | 0 | 2 | SPOT intensity [21]: 5; SPOT intensity [22]: 58; SPOT intensity [23]: 0; SPOT intensity [24]: 1; SPOT intensity [25]: 1; SPOT intensity [26]: 1; SPOT intensity [27]: 556
2 | LKRITSPPLPPRADS | 0 | 38 | 0 | 3 | 11 | 0 | 0 | 4 | 4040 | 65 | 0 | 145 | 40 | 75 | 6 | 0 | 0 | 700 | 0 | 1 | SPOT intensity [21]: 33; SPOT intensity [22]: 892; SPOT intensity [23]: 520; SPOT intensity [24]: 0; SPOT intensity [25]: 0; SPOT intensity [26]: 0; SPOT intensity [27]: 566
3 | EEEEEHPPLPARRKS | 0 | 0 | 0 | 0 | 0 | 3 | 0 | 0 | 222 | 0 | 0 | 155 | 0 | 0 | 3 | 4 | 0 | 590 | 1 | 0 | SPOT intensity [21]: 9; SPOT intensity [22]: 32; SPOT intensity [23]: 0; SPOT intensity [24]: 1; SPOT intensity [25]: 0; SPOT intensity [26]: 0; SPOT intensity [27]: 683
4 | TTAPALPSLPPPPLL | 0 | 0 | 0 | 0 | 0 | 0 | 0 | 651 | 0 | 0 | 0 | 4 | 0 | 728 | 2 | 0 | 0 | 0 | 0 | 0 | SPOT intensity [21]: 0; SPOT intensity [22]: 0; SPOT intensity [23]: 6110; SPOT intensity [24]: 0; SPOT intensity [25]: 0; SPOT intensity [26]: 0; SPOT intensity [27]: 0
5 | ISNFVPPNLPMRRFK | 1 | 72 | 0 | 8 | 217 | 7 | 0 | 37 | 2140 | 65 | 39 | 671 | 129 | 59 | 19 | 1 | 0 | 452 | 1 | 0 | SPOT intensity [21]: 199; SPOT intensity [22]: 63; SPOT intensity [23]: 5; SPOT intensity [24]: 3; SPOT intensity [25]: 0; SPOT intensity [26]: 1; SPOT intensity [27]: 588
6 | TTNRGPPPLPPRANV | 0 | 750 | 0 | 1 | 48 | 11 | 0 | 206 | 4620 | 58 | 0 | 470 | 48 | 129 | 8 | 0 | 0 | 743 | 0 | 0 | SPOT intensity [21]: 33; SPOT intensity [22]: 1110; SPOT intensity [23]: 425; SPOT intensity [24]: 1; SPOT intensity [25]: 0; SPOT intensity [26]: 0; SPOT intensity [27]: 892

— article PMC2756588
